Results from US20190030139A1 (MAYO FOUNDATION FOR MEDICAL EDUCATION AND RESEARCH, published 2019).

B1: AMPKα1 4KR mutant (FLAG-tagged, expressed in HCT116 cells) (enzyme)
chain: MRRLSSWRKMATAEKQKHDGRVKIGHYILGDTLGVGTFGKVKVGKHELTGHKVAVKILNRQKIRSLDVVGRIRREIQNLKLFRHPHIIKLYQVISTPSDIFMVMEYVSGGELFDYICKNGRLDEKESRRLFQQILSGVDYCHRHMVVHRDLKPENVLLDAHMNAKIADFGLSNMMSDGEFLRTSCGSPNYAAPEVISGRLYAGPEVDIWSSGVILYALLCGTLPFDDDHVPTLFKKICDGIFYTPQYLNPSVISLLKHMLQVDPMKRATIKDIREHEWFKQDLPRYLFPEDPSYSSTMIDDEALKEVCEKFECSEEEVLSCLYNRNHQDPLAVAYHLIIDNRRIMNEAKDFYLATSPPDSFLDDHHLTRPHPERVPFLVAETPRARHTLDELNPQRSKHQGVRKAKWHLGIRSQSRPNDIMAEVCRAIKQLDYEWKVVNPYYLRVRRKNPVTSTYSKMSLQLYQVDSRTYLLDFRSIDDEITEARSGTATPQRSGSVSNYRSCQRSDSDAEAQGKSSEVSLTSSVTSLDSSPVDLTPRPGSHTIEFFEMCANLIKILAQ
notes: also called 4KR AMPKα1; AMPKα 4KR mutant; not shown: FLAG tag
B2: LKB1 (enzyme, UniProt Q15831 1-430, looked up)
chain: MEVVDPQQLGMFTEGELMSVGMDTFIHRIDSTEVIYQPRRKRAKLIGKYLMGDLLGEGSYGKVKEVLDSETLCRRAVKILKKKKLRRIPNGEANVKKEIQLLRRLRHKNVIQLVDVLYNEEKQKMYMVMEYCVCGMQEMLDSVPEKRFPVCQAHGYFCQLIDGLEYLHSQGIVHKDIKPGNLLLTTGGTLKISDLGVAEALHPFAADDTCRTSQGSPAFQPPEIANGLDTFSGFKVDIWSAGVTLYNITTGLYPFEGDNIYKLFENIGKGSYAIPGDCGPPLSDLLKGMLEYEPAKRFSIRQIRQHSWFRKKHPPAEAPVPIPPSPDTKDRWRSMTVVPYLEDLHGADEDEDLFDIEDDIIYTQDFTVPGQVPEEEASHNGQRRGLPKAVCMNGTEAAQLSTKSRAEGRAPNPARKACSASSKIRRLSAC
notes: Cellular protein co-precipitated with FLAG-tagged AMPKα
B3: AMPKα2 4KR mutant (FLAG-tagged, expressed in HCT116 cells) (enzyme)
chain: MAEKQKHDGRVKIGHYVLGDTLGVGTFGKVKIGEHQLTGHKVAVKILNRQKIRSLDVVGRIKREIQNLKLFRHPHIIKLYQVISTPTDFFMVMEYVSGGELFDYICKHGRVEEMEARRLFQQILSAVDYCHRHMVVHRDLKPENVLLDAHMNAKIADFGLSNMMSDGEFLRTSCGSPNYAAPEVISGRLYAGPEVDIWSCGVILYALLCGTLPFDDEHVPTLFKKIRGGVFYIPEYLNRSVATLLMHMLQVDPLKRATIKDIREHEWFKQDLPSYLFPEDPSYDANVIDDEAVKEVCEKFECTESEVMNSLYSGDPQDQLAVAYHLIIDNRRIMNQASEFYLASSPPSGSFMDDSAMHIPPGLKPHPERMPPLIADSPRARCPLDALNTTRPKSLAVKKAKWHLGIRSQSKPYDIMAEVYRAMKQLDFEWKVVNAYHLRVRRKNPVTGNYVKMSLQLYLVDNRSYLLDFRSIDDEVVEQRSGSSTPQRSCSAAGLHRPRSSFDSTTAESHSLSGSLTGSLTGSTLSSVSPRLGSHTMDFFEMCASLITTLAR
notes: also called quadruple K to R mutant (4KR); AMPKα 4KR mutant; not shown: FLAG tag
B4: GST tagged AMPK β2 (other, UniProt O43741 1-272, looked up)
chain: MGNTTSDRVSGERHGAKAARSEGAGGHAPGKEHKIMVGSTDDPSVFSLPDSKLPGDKEFVSWQQDLEDSVKPTQQARPTVIRWSEGGKEVFISGSFNNWSTKIPLIKSHNDFVAILDLPEGEHQYKFFVDGQWVHDPSEPVVTSQLGTINNLIHVKKSDFEVFDALKLDSMESSETSCRDLSSSPPGPYGQEMYAFRSEERFKSPPILPPHLLQVILNKDTNISCDPALLPEPNHVMLNHLYALSIKDSVMVLSATHRYKKKYVTTLLYKPI
notes: not shown: glutathione S-transferase tag of vector pGEX-4T-1
B5: GST tagged AMPK β1 (other, UniProt Q9Y478 1-270, looked up)
chain: MGNTSSERAALERHGGHKTPRRDSSGGTKDGDRPKILMDSPEDADLFHSEEIKAPEKEEFLAWQHDLEVNDKAPAQARPTVFRWTGGGKEVYLSGSFNNWSKLPLTRSHNNFVAILDLPEGEHQYKFFVDGQWTHDPSEPIVTSQLGTVNNIIQVKKTDFEVFDALMVDSQKCSDVSELSSSPPGPYHQEPYVCKPEERFRAPPILPPHLLQVILNKDTGISCDPALLPEPNHVMLNHLYALSIKDGVMVLSATHRYKKKYVTTLLYKPI
notes: as for B4
B6: GST tagged AMPK γ1 (other, UniProt P54619 1-331, looked up)
chain: METVISSDSSPAVENEHPQETPESNNSVYTSFMKSHRCYDLIPTSSKLVVFDTSLQVKKAFFALVTNGVRAAPLWDSKKQSFVGMLTITDFINILHRYYKSALVQIYELEEHKIETWREVYLQDSFKPLVCISPNASLFDAVSSLIRNKIHRLPVIDPESGNTLYILTHKRILKFLKLFITEFPKPEFMSKSLEELQIGTYANIAMVRTTTPVYVALGIFVQHRVSALPVVDEKGRVVDIYSKFDVINLAAEKTYNNLDVSVTKALQHRSHYFEGVLKCYLHETLETIINRLVEAEVHRLVVVDENDVVKGIVSLSDILQALVLTGGEKKP
notes: as for B4

Experiments:
[1] = target: B2; assay: FLAG-bead immunoprecipitation from HCT116 lysates, LKB1 immunoblot (FIG. 6F)
[2] = target: T1, WT AMPKα1 (FLAG-tagged, expressed in HCT116 cells) (human, UniProt Q13131 1-559); assay: as above
T1 construct: Precipitated from cell lysates with FLAG beads; ubiquitinated in part in cells; also called FLAG-AMPKα; not shown: FLAG tag

[3] = target: T2, WT AMPKα2 (FLAG-tagged, expressed in HCT116 cells) (human, UniProt P54646 1-552); assay: FLAG-bead immunoprecipitation from HCT116 lysates, LKB1 immunoblot (FIG. 5G)
T2 construct: Precipitated from cell lysates with FLAG beads; ubiquitinated in part in cells; also called FLAG-AMPKα; not shown: FLAG tag

[4] = target: B2; assay: as above
[5] = target: T3, Purified His6-USP10 (human, UniProt Q14694 1-798); assay: GST pull-down with recombinant proteins (FIG. 3A)
T3 construct: also called His-USP10; recombinant USP10; not shown: His6 tag
Description: Purified His6-USP10 was incubated with the indicated GST tagged AMPK subunits coupled to GSH-Sepharose. Proteins retained on Sepharose were then blotted with the indicated antibodies. FIGS. 3B-3D are immunoblots showing the interaction of USP10 with AMPKα in cells. HCT116 cell lysates were subjected to immunoprecipitation (IP) with control IgG, anti-USP10 (FIG. 3B), anti-AMPKα1 (FIG. 3C), anti-AMPKα2 (FIG. 3D) antibodies. The immunoprecipitates were then blotted with the indicated antibodies. […] 293T cells transfected with the indicated constructs were lysed, and lysates were incubated with anti-FLAG beads. Proteins retained on beads were blotted with the indicated antibodies. […] HCT116 cells infected with lentivirus encoding the indicated shRNAs were transfected with the indicated constructs. Cell lysates and Ni-NTA pulldowns were immunoblotted as indicated. -Glu, glucose starvation. FIG. 3G is a picture of an immunoblot showing that USP10 deubiquitinase activity is required for AMPK deubiquitination. The indicated constructs were transfected into USP10 knockdown cell lines, and cells were placed in medium without glucose for 4 hours. Cell lysates were incubated with anti-HA beads and immunoblotted with the indicated antibodies. -Glu, glucose starvation. FIG. 3H is a picture of an immunoblot showing deubiquitination of AMPKα2 in vitro by USP10. Ubiquitinated AMPKα2 was incubated with purified USP10 or USP10CA in vitro, and then blotted with indicated antibodies.
Immunoprecipitation, immunoblotting, and in vitro pull-down assay—Cell lysates were prepared and immunoprecipitation and immunoblotting were performed as described elsewhere (Yuan et al., supra). In brief, cells were lysed with NETN buffer (20 mM Tris-HCl, pH 8.0, 100 mM NaCl, 1 mM EDTA, 0.5% Nonidet P-40) containing 50 mM β-glycerophosphate, 10 mM NaF, and 1 mg/ml each of pepstatin A and aprotinin.

T3 sequence (Q14694 whole entry): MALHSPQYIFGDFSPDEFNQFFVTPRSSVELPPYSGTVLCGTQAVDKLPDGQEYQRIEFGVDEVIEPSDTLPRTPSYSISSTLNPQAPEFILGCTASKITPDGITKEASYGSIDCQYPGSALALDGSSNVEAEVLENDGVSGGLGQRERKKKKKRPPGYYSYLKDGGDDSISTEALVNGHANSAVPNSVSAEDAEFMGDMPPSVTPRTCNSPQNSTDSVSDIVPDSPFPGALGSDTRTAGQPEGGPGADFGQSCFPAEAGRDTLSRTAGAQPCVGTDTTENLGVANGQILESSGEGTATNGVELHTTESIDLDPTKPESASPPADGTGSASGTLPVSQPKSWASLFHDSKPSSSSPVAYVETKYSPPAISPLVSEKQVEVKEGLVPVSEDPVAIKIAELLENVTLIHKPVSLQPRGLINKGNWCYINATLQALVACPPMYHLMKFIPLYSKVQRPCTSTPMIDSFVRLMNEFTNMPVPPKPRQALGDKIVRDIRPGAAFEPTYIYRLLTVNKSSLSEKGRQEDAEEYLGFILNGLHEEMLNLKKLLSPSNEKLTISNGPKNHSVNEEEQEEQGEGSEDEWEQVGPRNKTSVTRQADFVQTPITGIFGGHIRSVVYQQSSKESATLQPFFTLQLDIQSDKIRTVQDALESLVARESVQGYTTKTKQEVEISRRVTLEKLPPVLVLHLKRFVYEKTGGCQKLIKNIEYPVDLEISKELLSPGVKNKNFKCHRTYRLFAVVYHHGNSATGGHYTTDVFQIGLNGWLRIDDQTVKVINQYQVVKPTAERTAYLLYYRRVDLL

Binder: B1
binding result [1]: binds

Binder: B2
binding result [2]: binds
binding result [3]: binds

Binder: B3
binding result [4]: binds

Binder: B4
binding result [5]: no binding

Binder: B5
binding result [5]: no binding

Binder: B6
binding result [5]: no binding
